Source: article PMC2784022

Biological target: Gal4BD-TR4LBD (mouse) (UniProt P49117)
Assay: two-hybrid

Chain of UniProt P49117 (P49117 178-477): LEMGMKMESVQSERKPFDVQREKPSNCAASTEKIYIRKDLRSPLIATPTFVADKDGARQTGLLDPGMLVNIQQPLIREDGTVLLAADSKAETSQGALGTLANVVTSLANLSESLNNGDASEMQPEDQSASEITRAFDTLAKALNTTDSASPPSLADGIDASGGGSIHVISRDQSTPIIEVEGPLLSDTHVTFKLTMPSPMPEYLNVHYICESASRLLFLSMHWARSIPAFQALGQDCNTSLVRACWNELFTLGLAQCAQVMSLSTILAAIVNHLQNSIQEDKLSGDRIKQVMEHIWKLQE

Molecule: VP16AD-PCAF (from UniProt Q92831 1-832) (natural protein)
- fold enhancement of the two-hybrid reporter with γ-linoleic acid: 12 fold

B1: VP16AD-RIP140 (natural protein)
chain: MTHGEELGSDVHQDSIVLTYLEGLLMHQAAGGSGTAINKKSAGHKEEDQNFNLSGSAFPSCQSNGPTVSTQTYQGSGMLHLKKARLLQSSEDWNAAKRKRLSDSIVNLNVKKEALLAGMVDSVPKGKQDSTLLASLLQSFSSRLQTVALSQQIRQSLKEQGYALSHESLKVEKDLRCYGVASSHLKTLLKKSKTKDQKSGPTLPDVTPNLIRDSFVESSHPAVGQSGTKVMSEPLSCAARLQAVASMVEKRASPAASPKPSVACSQLALLLSSEAHLQQYSREHALKTQNAHQVASERLAAMARLQENGQKDVGSSQLSKGVSGHLNGQARALPASKLVANKNNAATFQSPMGVVPSSPKNTSYKNSLERNNLKQAANNSLLLHLLKSQTIPTPMNGHSQNERASSFESSTPTTIDEYSDNNPSFTDDSSGDESSYSNCVPIDLSCKHRIEKPEAERPVSLENLTQSLLNTWDPKIPGVDIKEDQDTSTNSKLNSHQKVTLLQLLLGHKSEETVERNASPQDIHSDGTKFSPQNYTRTSVIESPSTNRTTPVSTPPLYTASQAESPINLSQHSLVIKWNSPPYACSTPASKLTNTAPSHLMDLTKGKESQAEKPAPSEGAQNSATFSASKLLQNLAQCGLQSSGPGEEQRPCKQLLSGNPDKPLGLIDRLNSPLLSNKTNAAEESKAFSSQPAGPEPGLPGCEIENLLERRTVLQLLLGNSSKGKNEKKEKTPARDEAPQEHSERAANEQILMVKIKSEPCDDFQTHNTNLPLNHDAKSAPFLGVTPAIHRSTAALPVSEDFKSEPASPQDFSFSKNGLLSRLLRQNQESYPADEQDKSHRNSELPTLESKNICMVPKKRKLYTEPLENPFKKMKNTAVDTANHHSGPEVLYGSLLHQEELKFSRNELDYKYPAGHSSASDGDHRSWARESKSFNVLKQLLLSENCVRDLSPHRSDSVPDTKKKGHKNNAPGSKPEFGISSLNGLMYSSPQPGSCVTDHRTFSYPGMVKTPLSPPFPEHLGCVGSRPEPGLLNGCSVPGEKGPIKWVIADMDKNEYEKDSPRLTKTNPILYYMLQKGGGNSVTTQETQDKDIWREPASAESLSQVTVKEELLPAAETKASFFNLRSPYNSHMGNNASRPHSTNGEVYGLLGNALTIKKESE
- fold enhancement of the two-hybrid reporter with γ-linoleic acid: 23 fold
